*1 amine or outer side, *2 acyl side, *3 side chain or, on linkers, in order; H or OH if unused. Where no end group is shown, it is not given here. Side-chain parts run from the residue outwards. [ ]: non-standard residue; d: D form. The star is where a group is joined. Decanoyl(10-(4-HOOC-PhO)) = O=C(O)c1ccc(OCCCCCCCCCC(=O)*)cc1; d(γGlu) = O=C(O)[C@@H](CCC(=O)[*:2])N[*:1]; C16 diacid = O=C(O)CCCCCCCCCCCCCCC(=O)*; γGlu = O=C(O)[C@H](CCC(=O)[*:2])N[*:1]; C12 diacid = O=C(O)CCCCCCCCCCC(=O)*; 13‑carboxytridecanoyl = C14 diacid; AEEA = NCCOCCOCC(=O)O; Aib = CC(C)(N)C(=O)O

The term IC50 denotes the concentration at which inhibition is half-maximal.

Experiment [1] concerns the target T1, human GLP-1 receptor (human, UniProt P43220 24-463).
T1 construct: whole, on cells; Used as purified membranes of the transfected hamster cells, not whole cells; also called hGLP-1
The experiment can be described thus: SPA, 2.0% vs 0.005% HSA.

For experiment [2], the target named is T1, human GLP-1 receptor. The experiment can be described thus: SPA, displacement of 125I-GLP-1(7-36)NH2, 0.005% HSA. A general note: In a radioligand displacement assay an active substance lowers the binding of a labelled ligand.

As for H[Aib]EGTFTSDVSK([AEEA-AEEA-d(γGlu)-γGlu-13‑carboxytridecanoyl])YLEEQAAK([AEEA-AEEA-d(γGlu)-γGlu-13‑carboxytridecanoyl])EFIAWLVQGRG [GLP-1 derivative of Example 105: [Aib8,Lys18,Glu22,Gln34]-GLP-1-(7-37)-peptide], the “ratio IC50 high HSA/IC50 low HSA” value in the experiment with human GLP-1 receptor [1] was greater than 1. In the experiment with human GLP-1 receptor [2], this molecule displayed an IC50 of less than 1 µM.

As for H[Aib]EGTFTSDVSK([AEEA-γGlu-AEEA-13‑carboxytridecanoyl])YLEEQAVREFIAK([AEEA-γGlu-AEEA-13‑carboxytridecanoyl])LVRGRG [GLP-1 derivative of Example 145: [Aib8,Lys18,Glu22,Val25,Arg26,Lys31,Arg34]-GLP-1-(7-37)-peptide], the “ratio IC50 high HSA/IC50 low HSA” value in the experiment with human GLP-1 receptor [1] was greater than 1. The same molecule displayed a 50% inhibitory concentration (IC50) in the experiment with human GLP-1 receptor [2] of less than 1 µM.

Consider H[Aib]EGTFTSDVSK([AEEA-γGlu-AEEA-C16 diacid])YLEEQAVREFIAK([AEEA-γGlu-AEEA-C16 diacid])LVRGRG [GLP-1 derivative of Example 146: [Aib8,Lys18,Glu22,Val25,Arg26,Lys31,Arg34]-GLP-1-(7-37)-peptide], for which the “ratio IC50 high HSA/IC50 low HSA” value with human GLP-1 receptor [1] is greater than 1. The molecule also showed an IC50 in the experiment with human GLP-1 receptor [2] of less than 1 µM.

Consider HAEGTFTSDVSK([AEEA-AEEA-γGlu-13‑carboxytridecanoyl])YLEEQAVREFIAK([AEEA-AEEA-γGlu-13‑carboxytridecanoyl])LVG [GLP-1 derivative of Example 10: [Lys18,Glu22,Val25,Arg26,Lys31,Gly34]-GLP-1-(7-34)-peptide], for which the “ratio IC50 high HSA/IC50 low HSA” value with human GLP-1 receptor [1] is greater than 1. The IC50 with human GLP-1 receptor [2] is less than 1 µM.

Take HAEGTFTSDVSK([AEEA-AEEA-γGlu-Decanoyl(10-(4-HOOC-PhO))])YLEEQAARK([AEEA-AEEA-γGlu-Decanoyl(10-(4-HOOC-PhO))])FIAHLVG [GLP-1 derivative of Example 30: [Lys18,Glu22,Arg26,Lys27,His31,Gly34]-GLP-1-(7-34)-peptide]: the “ratio IC50 high HSA/IC50 low HSA” value with human GLP-1 receptor [1] was greater than 1. The same molecule showed an IC50 in the experiment with human GLP-1 receptor [2] of less than 1 µM.

For HSEGTFTSDVSK([AEEA-AEEA-γGlu-13‑carboxytridecanoyl])YLEEQAVREFIAK([AEEA-AEEA-γGlu-13‑carboxytridecanoyl])LVG [GLP-1 derivative of Example 14: [Ser8,Lys18,Glu22,Val25,Arg26,Lys31,Gly34]-GLP-1-(7-34)-peptide], in the experiment with human GLP-1 receptor [1], the “ratio IC50 high HSA/IC50 low HSA” value is greater than 1. This molecule also came in with an IC50 in the experiment with human GLP-1 receptor [2] of less than 1 µM.

B1: GLP-1 derivative of Example 15: [Lys8,Glu22,Arg26,Lys31,Gly34]-GLP-1-(7-34)-peptide (peptide)
peptide: HAEGTFTSDVSK([AEEA-AEEA-γGlu-13‑carboxytridecanoyl])YLEEQAAREFIAK([AEEA-AEEA-γGlu-13‑carboxytridecanoyl])LVG
notes: Name prints Lys8, evidently Lys18 (acylation at Nε18)
Regarding B1, in the experiment with human GLP-1 receptor [1], the “ratio IC50 high HSA/IC50 low HSA” value is greater than 1. For the same molecule, in the experiment with human GLP-1 receptor [2], the IC50 is less than 1 µM.

For HAEGTFTSDVSK([γGlu-AEEA-AEEA-Decanoyl(10-(4-HOOC-PhO))])YLEEQAARK([γGlu-AEEA-AEEA-Decanoyl(10-(4-HOOC-PhO))])FIAHLVG [GLP-1 derivative of Example 49: [Lys18,Glu22,Arg26,Lys27,His31,Gly34]-GLP-1-(7-34)-peptide], the “ratio IC50 high HSA/IC50 low HSA” value with human GLP-1 receptor [1] is greater than 1. In the experiment with human GLP-1 receptor [2], the half-inhibitory concentration (IC50) is less than 1 µM.

As to HAEGTFTSDVSK([AEEA-AEEA-γGlu-13‑carboxytridecanoyl])YLEEQAVREFIK([AEEA-AEEA-γGlu-13‑carboxytridecanoyl])WLVG [GLP-1 derivative of Example 50: [Lys18,Glu22,Val25,Arg26,Lys30,Gly34]-GLP-1-(7-34)-peptide], the “ratio IC50 high HSA/IC50 low HSA” value with human GLP-1 receptor [1] is greater than 1. Besides, the IC50 with human GLP-1 receptor [2] is less than 1 µM.

As for HAEGTFTSDVSK([γGlu-AEEA-AEEA-13‑carboxytridecanoyl])YLEEQAARK([γGlu-AEEA-AEEA-13‑carboxytridecanoyl])FIAHLVG [GLP-1 derivative of Example 29: [Lys18,Glu22,Arg26,Lys27,His31,Gly34]-GLP-1-(7-34)-peptide], the “ratio IC50 high HSA/IC50 low HSA” value with human GLP-1 receptor [1] was greater than 1. This molecule also displayed an IC50 with human GLP-1 receptor [2] of less than 1 µM.

Consider HAEGTFTSDVSK([AEEA-AEEA-13‑carboxytridecanoyl])YLEEQAARK([AEEA-AEEA-13‑carboxytridecanoyl])FIAHLVG [GLP-1 derivative of Example 28: [Lys18,Glu22,Arg26,Lys27,His31,Gly34]-GLP-1-(7-34)-peptide], for which the “ratio IC50 high HSA/IC50 low HSA” value in the experiment with human GLP-1 receptor [1] is greater than 1. The same molecule yielded an IC50 with human GLP-1 receptor [2] of less than 1 µM.

Turning to HSEGTFTSDVSK([AEEA-AEEA-γGlu-C12 diacid])YLEEQAVREFIAK([AEEA-AEEA-γGlu-C12 diacid])LVG [GLP-1 derivative of Example 25: [Ser8,Lys18,Glu22,Val25,Arg26,Lys31,Gly34]-GLP-1-(7-34)-peptide], the “ratio IC50 high HSA/IC50 low HSA” value with human GLP-1 receptor [1] was greater than 1. This molecule displayed an IC50 with human GLP-1 receptor [2] of less than 1 µM.

The values above are taken from patent US9708383 (Novo Nordisk, dated 2017).
